# According to US20090093061A1:
# What was measured:
# Assay in all cases: GroEL-490 bead column capture of denatured serum, ATP elution, LC-MS-MS
# [1] = biological target: target of myb1 (Homo sapiens) (UniProt O60784)
# [2] = biological target: hypothetical protein XP_378771 (Homo sapiens)
# [3] = biological target: alpha 2 type XI collagen isoform 3 preproprotein (Homo sapiens) (UniProt P13942)
# [4] = biological target: hemicentin (Homo sapiens) (UniProt Q96RW7)
# [5] = biological target: alpha 1 type IX collagen isoform 1 precursor (Homo sapiens) (UniProt P20849)
# Sequence of alpha 1 type IX collagen isoform 1 precursor (Homo sapiens) (P20849 24-921): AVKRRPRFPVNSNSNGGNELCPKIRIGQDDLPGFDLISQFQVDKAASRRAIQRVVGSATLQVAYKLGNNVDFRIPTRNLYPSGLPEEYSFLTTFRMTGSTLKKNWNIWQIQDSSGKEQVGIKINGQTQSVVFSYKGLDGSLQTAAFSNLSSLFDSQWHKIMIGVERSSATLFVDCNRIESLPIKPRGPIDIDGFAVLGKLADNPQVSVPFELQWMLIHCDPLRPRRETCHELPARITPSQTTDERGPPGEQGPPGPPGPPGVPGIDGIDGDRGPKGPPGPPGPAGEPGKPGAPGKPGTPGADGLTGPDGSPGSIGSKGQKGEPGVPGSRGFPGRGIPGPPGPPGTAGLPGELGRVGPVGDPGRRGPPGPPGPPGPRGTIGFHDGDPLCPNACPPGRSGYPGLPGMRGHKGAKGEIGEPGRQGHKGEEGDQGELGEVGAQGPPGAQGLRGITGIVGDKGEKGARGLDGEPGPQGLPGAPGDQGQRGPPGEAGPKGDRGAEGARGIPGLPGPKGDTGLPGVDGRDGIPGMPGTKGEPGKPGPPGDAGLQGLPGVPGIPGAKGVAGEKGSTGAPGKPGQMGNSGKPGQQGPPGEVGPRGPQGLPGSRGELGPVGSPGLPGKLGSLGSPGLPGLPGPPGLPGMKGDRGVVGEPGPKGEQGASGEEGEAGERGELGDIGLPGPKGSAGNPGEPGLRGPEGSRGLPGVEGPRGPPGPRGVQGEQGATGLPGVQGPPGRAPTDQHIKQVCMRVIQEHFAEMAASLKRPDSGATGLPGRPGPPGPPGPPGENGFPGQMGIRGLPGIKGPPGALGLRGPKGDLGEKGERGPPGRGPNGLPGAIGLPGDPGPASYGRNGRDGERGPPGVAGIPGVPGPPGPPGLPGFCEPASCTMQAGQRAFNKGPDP
# [6] = biological target: hypothetical protein XP_378639 (Homo sapiens)
# [7] = biological target: complement component 4 binding protein, alpha (Homo sapiens) (UniProt P04003)
# [8] = biological target: transferrin (Homo sapiens) (UniProt P02787)
# [9] = biological target: KIAA1330 protein (Homo sapiens) (UniProt Q96L96)
# [10] = biological target: chondroitin sulfate proteoglycan 6 (bamacan) (Homo sapiens) (UniProt Q9UQE7)
# [11] = biological target: DNA fragmentation factor, 45 kD, alpha polypeptide (Homo sapiens) (UniProt O00273)
# Sequence of DNA fragmentation factor, 45 kD, alpha polypeptide (Homo sapiens) (O00273 whole entry, the tested form may be a part): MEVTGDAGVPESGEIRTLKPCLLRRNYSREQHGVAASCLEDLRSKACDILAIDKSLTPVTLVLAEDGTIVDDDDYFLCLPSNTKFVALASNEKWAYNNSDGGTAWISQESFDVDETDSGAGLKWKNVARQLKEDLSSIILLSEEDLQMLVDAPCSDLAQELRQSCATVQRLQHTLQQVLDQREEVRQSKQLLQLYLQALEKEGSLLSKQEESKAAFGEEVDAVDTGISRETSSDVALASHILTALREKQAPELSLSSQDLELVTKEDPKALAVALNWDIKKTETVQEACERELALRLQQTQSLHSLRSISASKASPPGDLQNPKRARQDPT
# [12] = biological target: dendrin (Homo sapiens) (UniProt O94850)
# Sequence of dendrin (Homo sapiens) (O94850 whole entry, canonical isoform): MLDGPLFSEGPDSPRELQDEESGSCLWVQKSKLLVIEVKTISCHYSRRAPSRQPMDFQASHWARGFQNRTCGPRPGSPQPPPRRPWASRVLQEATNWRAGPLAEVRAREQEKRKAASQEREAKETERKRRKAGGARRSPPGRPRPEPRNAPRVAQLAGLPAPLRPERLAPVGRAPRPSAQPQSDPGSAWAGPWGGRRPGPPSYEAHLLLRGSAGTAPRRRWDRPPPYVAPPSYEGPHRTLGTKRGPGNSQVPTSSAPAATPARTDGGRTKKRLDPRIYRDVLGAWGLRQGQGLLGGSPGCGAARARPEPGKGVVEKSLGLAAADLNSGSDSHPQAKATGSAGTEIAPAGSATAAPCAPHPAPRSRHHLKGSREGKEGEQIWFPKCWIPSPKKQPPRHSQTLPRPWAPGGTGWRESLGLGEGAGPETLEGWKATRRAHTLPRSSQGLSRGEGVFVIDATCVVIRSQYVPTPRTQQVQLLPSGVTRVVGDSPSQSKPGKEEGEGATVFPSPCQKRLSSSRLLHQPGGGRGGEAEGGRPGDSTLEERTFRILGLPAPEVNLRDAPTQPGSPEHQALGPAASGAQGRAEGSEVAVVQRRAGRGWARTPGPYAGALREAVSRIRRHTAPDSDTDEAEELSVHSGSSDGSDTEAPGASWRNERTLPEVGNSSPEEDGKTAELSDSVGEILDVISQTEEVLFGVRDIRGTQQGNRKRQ
# [13] = biological target: tripartite motif protein TRIM14 isoform alpha (Homo sapiens) (UniProt Q14142)
# [14] = biological target: SPRY domain-containing SOCS box protein SSB-4 (Homo sapiens) (UniProt Q96A44)
# Sequence of SPRY domain-containing SOCS box protein SSB-4 (Homo sapiens) (Q96A44 whole entry, the tested form may be a part, canonical isoform): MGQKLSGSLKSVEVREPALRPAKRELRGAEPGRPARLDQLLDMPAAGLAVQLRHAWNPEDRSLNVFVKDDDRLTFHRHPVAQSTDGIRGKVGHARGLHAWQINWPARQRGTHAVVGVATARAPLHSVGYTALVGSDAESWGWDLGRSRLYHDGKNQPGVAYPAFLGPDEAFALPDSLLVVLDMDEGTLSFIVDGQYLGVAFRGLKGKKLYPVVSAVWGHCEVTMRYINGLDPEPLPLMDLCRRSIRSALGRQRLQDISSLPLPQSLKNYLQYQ
# [15] = biological target: phosphoinositide-specific phospholipase C beta 1 isoform a (UniProt Q9NQ66)
# Sequence of phosphoinositide-specific phospholipase C beta 1 isoform a (Q9NQ66 whole entry, canonical isoform): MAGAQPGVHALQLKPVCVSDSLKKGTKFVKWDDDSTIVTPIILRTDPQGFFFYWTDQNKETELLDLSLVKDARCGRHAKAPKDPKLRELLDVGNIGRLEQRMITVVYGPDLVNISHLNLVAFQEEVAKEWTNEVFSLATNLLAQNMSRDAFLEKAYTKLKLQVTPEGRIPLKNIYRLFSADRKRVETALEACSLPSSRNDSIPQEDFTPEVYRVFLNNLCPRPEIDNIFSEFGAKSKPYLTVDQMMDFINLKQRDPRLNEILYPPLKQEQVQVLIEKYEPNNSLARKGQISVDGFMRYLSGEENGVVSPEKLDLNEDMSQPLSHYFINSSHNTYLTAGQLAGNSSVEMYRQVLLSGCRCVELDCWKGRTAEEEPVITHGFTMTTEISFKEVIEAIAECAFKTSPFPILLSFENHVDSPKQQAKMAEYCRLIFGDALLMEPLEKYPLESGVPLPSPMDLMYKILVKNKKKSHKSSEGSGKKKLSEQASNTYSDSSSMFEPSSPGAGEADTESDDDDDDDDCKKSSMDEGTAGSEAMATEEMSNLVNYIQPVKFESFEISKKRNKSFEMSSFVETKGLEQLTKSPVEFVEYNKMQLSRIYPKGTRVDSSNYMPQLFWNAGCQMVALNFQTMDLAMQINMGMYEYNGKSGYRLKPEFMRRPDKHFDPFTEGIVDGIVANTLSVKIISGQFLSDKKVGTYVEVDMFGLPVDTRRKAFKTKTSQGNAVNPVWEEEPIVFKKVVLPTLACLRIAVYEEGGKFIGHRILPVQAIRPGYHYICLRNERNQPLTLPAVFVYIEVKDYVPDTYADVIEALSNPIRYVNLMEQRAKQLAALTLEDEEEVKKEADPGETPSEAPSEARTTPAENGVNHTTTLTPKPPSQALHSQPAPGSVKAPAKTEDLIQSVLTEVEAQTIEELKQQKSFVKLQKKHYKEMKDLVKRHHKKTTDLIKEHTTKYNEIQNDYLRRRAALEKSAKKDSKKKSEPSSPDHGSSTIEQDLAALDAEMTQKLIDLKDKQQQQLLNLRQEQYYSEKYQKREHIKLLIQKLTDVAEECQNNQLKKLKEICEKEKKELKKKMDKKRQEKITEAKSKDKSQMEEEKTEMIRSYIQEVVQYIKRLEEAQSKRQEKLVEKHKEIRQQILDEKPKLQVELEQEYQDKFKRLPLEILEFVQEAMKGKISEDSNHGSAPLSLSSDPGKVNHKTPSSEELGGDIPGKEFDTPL
# [16] = biological target: ectonucleoside triphosphate diphosphohydrolase 7 (Homo sapiens) (UniProt Q9NQZ7)
# [17] = biological target: hematopoletic protein 1 (Homo sapiens) (UniProt P55160)
# [18] = biological target: leucine-rich repeat-containing G protein-coupled receptor 6 (Homo sapiens) (UniProt Q9HBX8)
# [19] = biological target: keratin 1 (Homo sapiens) (UniProt P04264)
# [20] = biological target: titin isoform novex-2 (Homo sapiens) (UniProt Q8WZ42)
# [21] = biological target: very large G-protein coupled receptor 1 (Homo sapiens) (UniProt Q8WXG9)
# [22] = biological target: serine (or cysteine) proteinase inhibitor, clade A (alpha-1 antiproteinase, antitrypsin), member 1 (UniProt P01009)
# Sequence of serine (or cysteine) proteinase inhibitor, clade A (alpha-1 antiproteinase, antitrypsin), member 1 (P01009 25-418 limits assumed): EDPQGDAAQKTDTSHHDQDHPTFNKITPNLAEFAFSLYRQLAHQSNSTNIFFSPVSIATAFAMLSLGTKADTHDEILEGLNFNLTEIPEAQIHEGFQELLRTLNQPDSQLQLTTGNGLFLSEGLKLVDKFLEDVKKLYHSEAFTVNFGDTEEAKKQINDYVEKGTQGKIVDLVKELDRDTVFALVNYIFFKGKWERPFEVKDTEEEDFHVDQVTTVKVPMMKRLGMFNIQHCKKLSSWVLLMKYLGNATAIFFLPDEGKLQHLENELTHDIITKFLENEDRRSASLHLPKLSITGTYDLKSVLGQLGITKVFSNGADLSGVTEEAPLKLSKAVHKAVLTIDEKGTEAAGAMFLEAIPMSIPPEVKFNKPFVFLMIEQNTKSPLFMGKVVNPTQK
# [23] = biological target: similar to ataxin 2 binding protein 1 isoform gamma (Homo sapiens)
# [24] = biological target: H2A histone family, member X (Homo sapiens) (UniProt P16104)
# [25] = biological target: START domain containing 9 (Homo sapiens) (UniProt Q9P2P6)
# [26] = biological target: extra spindle poles like 1 (Homo sapiens) (UniProt Q14674)
# [27] = biological target: glutaminase C (Homo sapiens) (UniProt O94925)
# [28] = biological target: neutral sphingomyelinase (N-SMase) activation associated factor (Homo sapiens) (UniProt Q92636)
# [29] = biological target: microfilament and actin filament cross-linker protein isoform a (UniProt Q9UPN3)
# [30] = biological target: POU domain, class 2, transcription factor 1 (Homo sapiens) (UniProt P14859)
# [31] = biological target: hypothetical protein FLJ12178 (Homo sapiens)
# [32] = biological target: baculoviral IAP repeat-containing 6 (Homo sapiens) (UniProt Q9NR09)
# Sequence of GroEL having Aspartate 490 substituted with Cysteine, biotinylated and conjugated onto NeutrAvidin beads (A1AJ51 whole entry D490C): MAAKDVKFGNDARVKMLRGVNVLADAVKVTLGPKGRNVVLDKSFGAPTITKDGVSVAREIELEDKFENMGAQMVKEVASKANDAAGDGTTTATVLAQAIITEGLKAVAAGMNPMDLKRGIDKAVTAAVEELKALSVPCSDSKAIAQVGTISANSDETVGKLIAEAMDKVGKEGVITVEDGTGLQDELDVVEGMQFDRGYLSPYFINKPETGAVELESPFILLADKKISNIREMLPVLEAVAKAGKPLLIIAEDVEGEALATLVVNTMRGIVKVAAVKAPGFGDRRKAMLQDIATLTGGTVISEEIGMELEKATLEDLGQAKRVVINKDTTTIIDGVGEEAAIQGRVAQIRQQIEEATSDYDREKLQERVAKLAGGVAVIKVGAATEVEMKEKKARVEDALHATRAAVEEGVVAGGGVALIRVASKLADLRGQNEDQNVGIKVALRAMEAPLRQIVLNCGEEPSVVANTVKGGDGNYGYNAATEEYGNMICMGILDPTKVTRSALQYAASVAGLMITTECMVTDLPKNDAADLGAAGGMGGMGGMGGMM
# Sequence of target of myb1 (Homo sapiens) (O60784 whole entry): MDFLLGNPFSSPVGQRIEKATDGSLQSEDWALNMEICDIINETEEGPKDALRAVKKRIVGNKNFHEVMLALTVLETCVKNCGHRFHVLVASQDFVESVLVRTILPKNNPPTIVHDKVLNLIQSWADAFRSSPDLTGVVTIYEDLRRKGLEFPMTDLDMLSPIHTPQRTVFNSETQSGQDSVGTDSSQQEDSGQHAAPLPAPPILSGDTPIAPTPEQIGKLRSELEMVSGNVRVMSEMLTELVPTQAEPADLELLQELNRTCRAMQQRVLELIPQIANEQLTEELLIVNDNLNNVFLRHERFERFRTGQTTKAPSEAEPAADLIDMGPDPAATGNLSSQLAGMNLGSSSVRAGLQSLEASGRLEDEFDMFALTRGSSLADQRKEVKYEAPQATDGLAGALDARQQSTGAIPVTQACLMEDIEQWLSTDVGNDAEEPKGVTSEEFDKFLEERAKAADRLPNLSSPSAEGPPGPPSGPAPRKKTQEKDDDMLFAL
substance,measurement,setting,value
"GroEL having Aspartate 490 substituted with Cysteine, biotinylated and conjugated onto NeutrAvidin beads (from UniProt A1AJ51 1-548)",Spectrum Count,[1],30 count
same,Spectrum Count,[2],17 count
same,Spectrum Count,[3],10 count
same,Spectrum Count,[4],10 count
same,Spectrum Count,[5],10 count
same,Spectrum Count,[6],14 count
same,Spectrum Count,[7],14 count
same,Spectrum Count,[8],60 count
same,Spectrum Count,[9],13 count
same,Spectrum Count,[10],9 count
same,Spectrum Count,[11],14 count
same,Spectrum Count,[12],14 count
same,Spectrum Count,[13],21 count
same,Spectrum Count,[14],30 count
same,Spectrum Count,[15],34 count
same,Spectrum Count,[16],41 count
same,Spectrum Count,[17],35 count
same,Spectrum Count,[18],9 count
same,Spectrum Count,[19],16 count
same,Spectrum Count,[20],56 count
same,Spectrum Count,[21],14 count
same,Spectrum Count,[22],20 count
same,Spectrum Count,[23],11 count
same,Spectrum Count,[24],41 count
same,Spectrum Count,[25],10 count
same,Spectrum Count,[26],9 count
same,Spectrum Count,[27],27 count
same,Spectrum Count,[28],9 count
same,Spectrum Count,[29],10 count
same,Spectrum Count,[30],11 count
same,Spectrum Count,[31],9 count
same,Spectrum Count,[32],113 count
